According to the supplement of paper PMC10567573:

B1: PLD5 (parent)
chain: VTYMNMTAYNKGRLQSSFWIVDKQ
B2: MYBL2 (parent)
chain: VKKSCWTEEEDRIICEAHKVLGNR

Variants of: B1
Assay: protein stability index of a GFP-peptide fusion (GPS, HEK-293T) (PSI 1-6); higher = more stable
Conditions: c terminus: a fixed tail appended
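Note: lentivirally expressed fusions sorted by FACS into six bins by GFP to DsRed ratio, PSI derived from sequencing read proportions per bin multiplied by bin number.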

Protein stability index: each site, then its substitutions
W19: S 2.29 | Q 2.46 | C 1.49 | A 1.8 | T 2.18 | Y 1.91 | P 1.98 | R 1.91 | H 2.21 | F 2.04 | E 2.04 | K 1.84 | L 2 | V 1.65 | I 1.76 | D 2.45 | G 2.01 | M 1.62
S16: Y 4.23 | F 3.61 | T 3.01 | H 2.01 | R 1.28 | Q 2.42 | D 2.08 | A 3.62 | W 3.41 | N 1.21 | I 2.81 | P 1.1 | K 1.63
V21: Q 1.89 | K 2.31 | D 1.96 | I 2.63 | Y 1.81 | S 1.55 | L 2.21 | E 1.5 | P 1.85 | M 1.52 | G 1.53 | F 1.43 | T 2.43 | C 1.38 | A 2.08 | H 1.28 | N 2.82 | R 1.7
Q15: V 4.47 | D 1.63 | K 1.03 | P 2.48 | G 2.44 | T 4.18 | A 3.27 | W 2.58 | H 2.42 | R 3.58 | I 2.03 | E 1.94 | N 3.18 | M 2.46 | F 1.61 | L 2.49
S17: Y 3.31 | T 1.43 | H 1.93 | G 1.73 | L 1.12 | K 2.12 | M 4.26 | D 2.15 | P 2.33 | C 2.28 | N 1.49 | R 3.71 | A 2.28
I20: Y 2.98 | T 1.4 | P 1.7 | N 1.91 | D 1.33 | A 1.41 | H 2.41 | E 2.23 | K 2.27 | S 2.09 | Q 1.97 | M 3.68 | R 1.51 | W 2.26 | L 1.22 | C 1.76 | G 1.25
D22: M 3.38 | R 3.44 | N 3.19 | P 2.11 | H 3.52 | E 1.21 | K 2.53 | C 3.67 | T 3.51
F18: N 1.67 | W 1.24 | E 2.2 | M 2.26 | C 2.26 | D 2.07 | R 1.82 | S 2.07 | Y 1.8 | L 2.32 | Q 1.8 | K 1.8 | G 2.31 | V 2.57 | H 1.48 | A 2.89 | T 1.74 | P 2.02
R13: L 1.51 | S 1.59 | H 3.22 | T 1.48 | Q 2.13 | W 4.66 | N 1.52 | K 1.27 | I 2.15 | M 2.14 | Y 2.93
Q24: M 3.08 | A 2.28 | D 1.85 | N 2.11 | K 1.24 | R 2.46 | I 2.52 | E 1.48 | S 2.22 | H 2.19 | P 2.67 | T 2.79
K23: Y 2.52 | R 2.17 | A 3.81 | I 2.33 | H 2.49 | T 3.52 | N 3.33 | C 1.95 | L 4.23 | Q 1.74 | P 2.67 | M 3.22 | E 3.18 | D 2.85
L14: Y 2.04 | Q 1.25 | N 1.29 | M 2.88 | P 2.86 | R 2.06 | V 1.84 | D 2.06 | F 1.93 | K 2.29 | E 1.62 | A 2.63 | S 2.72 | T 2.14 | W 2.63

Variants of: B2
Assay: as above
Conditions: c terminus: a fixed tail appended

Protein stability index: each site, then its substitutions
E9: C 2.6 | A 2.59 | K 3.37 | H 2.69 | G 2.8 | D 3.34 | F 2.31 | I 2.57
C5: T 3.79 | G 3.75 | V 3.31 | Q 4.21 | I 3.24 | A 3.47 | R 3.88 | P 3.69 | L 2.01 | F 3.22 | S 4.1 | K 3.53 | N 3.38 | D 3.77 | M 3 | H 3.63 | E 4.19 | Y 3.47 | W 2.73
V1: E 3.07 | K 3.34 | W 3.12 | A 3.19 | H 3.69 | Y 2.71 | I 3.23 | Q 3.23 | S 3.35 | L 3.02 | C 3.04 | P 3.66 | F 2.87 | M 3.32 | D 3.35 | T 3.78 | R 3.9 | G 3.32 | N 3.33
E8: A 3.12 | C 2.61 | W 2.47 | S 3.51 | H 3.33 | K 3.17 | Q 3.5 | P 3.4 | D 3.11 | I 1.85 | F 2.48 | L 2.69 | V 2.85 | G 2.44 | R 2.9 | M 3.37 | Y 2.79 | N 4.1 | T 2.45
S4: R 3 | N 3.51 | L 3.33 | T 2.97 | K 3.49 | P 3.49 | F 2.83 | Y 2.27 | A 3.31 | E 3.82 | V 3.41 | M 3.06 | D 3.58 | G 3.53 | W 1.98 | I 3.21 | C 2.53 | Q 3.17 | H 2.77
K3: T 2.76 | L 2.49 | P 3.14 | I 2.4 | R 3.3 | W 2.21 | G 3.38 | F 2.69 | Q 3.27 | E 4.1 | H 3.26 | C 2.39 | M 2.78 | N 2.78 | D 3.54 | S 3.12 | Y 2.76 | A 3.43 | V 2.52
W6: V 3.5 | N 4.17 | M 3.99 | I 3.7 | H 3.07 | E 4.7 | R 3.87 | G 3.97 | S 4.09 | A 3.92 | F 3.54 | T 3.94 | Y 3.5 | D 4.33 | P 4.4 | K 4.05 | Q 4.36 | C 4.48 | L 3.85
K2: C 2.31 | N 3.43 | R 3.54 | P 3.47 | V 2.76 | L 2.98 | I 2.89 | D 4.25 | Y 3.35 | H 3.25 | W 2.3 | A 3.28 | S 3.8 | F 2.86 | T 2.97 | M 2.92 | Q 3.6 | E 3.19 | G 3.46
T7: D 3.76 | A 2.98 | V 3.54 | S 2.83 | P 3.65 | L 3.11 | C 3.05 | Y 2.93 | H 2.95 | E 2.82 | F 2.2 | N 3.14 | I 4 | Q 2.59 | M 3.03 | W 2.32 | G 3.02 | R 3.59 | K 3.51
